Laboratory results taken from US20210355237A1 (RIKEN, published 2021).

Legend:
[1] = target: heated (56° C., 15 minutes) Der f 2-IgE antibody in clinical-case serum of allergic dogs (canine); assay: Der f 2-IgE ELISA, serum after heating, specimen containing pathogenic IgE antibody
[2] = target: T1, Peptide (-4) with 6×His tag and GS linker (canine); assay: ELISA, His-tagged peptide captured by anti-His tag antibody, biotinylated 6C12
T1 construct: 4 amino acids deleted from the N terminal of Peptide-full
T1 peptide: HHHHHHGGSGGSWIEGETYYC

[3] = target: T2, Peptide (-1C) with 6×His tag and GS linker (canine); assay: as above
T2 construct: 1 amino acid deleted from the C terminal
T2 peptide: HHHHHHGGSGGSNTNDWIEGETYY

[4] = target: T3, Peptide (-2C) with 6×His tag and GS linker (canine); assay: as above
T3 construct: 2 amino acids deleted from the C terminal
T3 peptide: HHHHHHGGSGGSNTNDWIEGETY

[5] = target: T4, Peptide (-3C) with 6×His tag and GS linker (canine); assay: as above
T4 construct: 3 amino acids deleted from the C terminal
T4 peptide: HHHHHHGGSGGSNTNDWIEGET

[6] = target: T5, Peptide (-4C) with 6×His tag and GS linker (canine); assay: as above
T5 construct: 4 amino acids deleted from the C terminal
T5 peptide: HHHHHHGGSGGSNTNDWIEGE

[7] = target: T6, Peptide (-5C) with 6×His tag and GS linker (canine); assay: as above
T6 construct: 5 amino acids deleted from the C terminal
T6 peptide: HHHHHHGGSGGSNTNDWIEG

[8] = target: non-heated Der f 2-IgE antibody in clinical-case serum of allergic dogs (canine); assay: Der f 2-IgE ELISA, serum before heating, specimen containing pathogenic IgE antibody
[9] = target: heated (56° C.) Der f 2-IgE antibody in experimental canine serum (canine); assay: Der f 2-IgE ELISA, serum after heating, specimen containing non-pathogenic IgE antibody
[10] = target: non-heated Der f 2-IgE antibody in experimental canine serum (beagles sensitized with Der f 2 and alum) (canine); assay: Der f 2-IgE ELISA, serum before heating, specimen containing non-pathogenic IgE antibody
[11] = target: feline serum IgE antibody of allergy cases, after heating (feline); assay: IgE ELISA of feline serum on immobilised Dermatophagoides Farinae allergen, 6C12 detection; Allergy case, Cat 1
[12] = target: feline serum IgE antibody of allergy cases, after heating (feline); assay: IgE ELISA of feline serum on immobilised Dermatophagoides Farinae allergen, 6C12 detection; Allergy case, Cat 2
[13] = target: feline serum IgE antibody of allergy cases, after heating (feline); assay: IgE ELISA of feline serum on immobilised Dermatophagoides Farinae allergen, 6C12 detection; Allergy case, Cat 3

- Der f 2-IgE concentration detected by 6C12 [1]: 848 ng/mL
- binding result [2]: no binding
- binding result [3]: no binding
- binding result [4]: no binding
- binding result [5]: no binding
- binding result [6]: no binding
- binding result [7]: no binding
- Der f 2-IgE concentration detected by 6C12 [8]: 0 ng/mL
- Der f 2-IgE concentration detected by 6C12 [9]: 1050 ng/mL
- IgE level detected by 6C12, After heating [11]: 89 ng/mL
- IgE level detected by 6C12, After heating [12]: 34 ng/mL
- IgE level detected by 6C12, After heating [13]: 91 ng/mL
B1: 6C12 (monoclonal antibody produced from hybridoma clone 6C12, mouse IgG1κ) (antibody, V domains shown)
VH: EVQLVESGGGLVQPKGSLKLSCAASGFNFNAYVMNWVRQAPGKGLEWVSRIRSKSNNYATYYADSVKDRFTISRDDSESMLYLQMNNLKTEDTAMYYCVRPDYYGGSPFAYWGQGTLVTVSA
VL: QIVLTQSPAIMSASPGEKVTISCSASSSVSYMYWYQQKPGSSPKPWIYRTSNLASGVPARFGGSGSGTSYSLTISSMEAEDAATYYCQQYHSYPPTFGVGTKLELK
notes: Mouse IgG1κ purified from ascites on Protein G; used biotin-labelled (ELISA, flow cytometry) or FITC-labelled (RBL-2H3); 129-174); also called 6C12 antibody; purified 6C12
- Der f 2-IgE concentration detected by 6C12 [10]: 1050 ng/mL
